We go through one protein from publication PMC2148169 (The Journal of Cell Biology, 1998).

The series deals with the molecule itself. The series is described as follows: SEC.

B1: recombinant GST-Vps5p expressed in bacteria (natural protein)
chain: LEAPVWDELNHEGDKTQSLVSNSIESIGQISTNEERKDNELLETTASFADKIDLDSAPEWKDPGLSVAGNPQLEEHDNSKADDLINSLAPEQDPIADLKNSTTQFIATRESGGALFTGNANSPLVFDDTIYDANTSPNTSKSISGRRSGKPRILFDSARAQRNSKRNHSLKAKRTTASDDTIKTPFTDPLKKAEKENEFVEEPLDDRNERRENNEGKFTASVEKNILEQVDRPLYNLPQTGANISSPAEVEENSEKFGKTKIGSKVPPTEKAVAFKVEVKDPVKVGELTSIHVEYTVISESSLLELKYAQVSRRYRDFRWLYRQLQNNHWGKVIPPPPEKQSVGSFKENFIENRRFQMESMLKKICQDPVLQKDKDFLLFLTSDDFSSESKKRAFLTGSGAINDSNDLSEVRISEIQLLGAEDAAEVLKNGGIDAESHKGFMSISFSSLPKYNEADEFFIEKKQKIDELEDNLKKLSKSLEMVDTSRNTLAASTEEFSSMVETLASLNVSEPNSELLNNFADVHKSIKSSLERSSLQETLTMGVMLDDYIRSLASVKAIFNQRSKLGYFLVVIENDMNKKHSQLGKLGQNIHSEKFREMRKEFQTLERRYNLTKKQWQAVGDKIKDEFQGFSTDKIREFRNGMEISLEAAIESQKECIELWETFYQTNL
Consider B1, for which the binding result is listed as “binds”.
